Test results published in patent KR20200019669A.
pKd: −log10 of the molar value.

How the values were obtained:
[1] = molecular target: his 태그가 부착된 재조합 인간 CD38 (recombinant human CD38 extracellular domain, His-tagged) (human) (UniProt P28907); assay: ForteBio (BLI), 1:1 fit
[2] = molecular target: 인간 CD38 (human CD38, full length, on cells) (human) (UniProt P28907); assay: cell-based or functional assay

pKd [1] | CD38 시클라제 활성 억제 [2] | Substance
8.05 |  | IB4 (antibody)
 | 70% | 다라투무맙 (daratumumab) (antibody)
